The text below walks through data of publication PMC6668832, “Structural basis for recognition of the tumor suppressor protein PTPN14 by the oncoprotein E7 of human papillomavirus” (PLoS Biology, 2019).

Sequences and labels used below:
B1: C-terminal domain (residues 54–105) of HPV18 E7, His6-MBP tag removed (domain or fragment)
chain: AEPQRHTMLCMCCKCEARIKLVVESSADDLRAFQQLFLNTLSFVCPWCASQQ
notes: HPV18 E7, C-terminal domain, residues 54-105; Homodimer by SEC-MALS; one zinc ion per monomer; also called HPV18 E7 C-terminal domain; HPV18 E7(54–105); source: E. coli BL21(DE3) RIL, modified pET28a, purified (Ni-NTA, TEV, second Ni-NTA, HiTrap Q, Superdex 75); not shown: His6, N-terminal, cleaved; MBP, N-terminal, cleaved
B2: PTP domain (residues 886–1187) of human PTPN14 (domain or fragment, UniProt Q15678 886-1187, looked up)
chain: VDATRVPMDERFRTLKKKLEEGMVFTEYEQIPKKKANGIFSTAALPENAERSRIREVVPYEENRVELIPTKENNTGYINASHIKVVVGGAEWHYIATQGPLPHTCHDFWQMVWEQGVNVIAMVTAEEEGGRTKSHRYWPKLGSKHSSATYGKFKVTTKFRTDSVCYATTGLKVKHLLSGQERTVWHLQYTDWPDHGCPEDVQGFLSYLEEIQSVRRHTNSMLEGTKNRHPPIVVHCSAGVGRTGVLILSELMIYCLEHNEKVEVPMMLRLLREQRMFMIQTIAQYKFVYQVLIQFLQNSRLI
notes: human PTPN14, catalytic PTP domain, residues 886-1187, untagged; also called PTPN14 PTP domain; nonreceptor-type protein tyrosine phosphatase 14; source: E. coli BL21(DE3) RIL, pET21a, purified (alone or copurified with E7)
B3: C-terminal domain of E7 from HPV1a (residues 39–93) (domain or fragment)
chain: LVSPQQPYAVVASCAYCEKLVRLTVLADHSAIRQLEELLLRSLNIVCPLCTLQRQ
notes: HPV1a E7, C-terminal domain, residues 39-93; Purified similarly to HPV18 E7, whose tag was removed with TEV; the complex mass of 80–85 kDa fits a cleaved tag; also called HPV1a E7 C-terminal domain; source: E. coli, MBP-modified pET28a, copurified with PTPN14 by mixing cell lysates
B5: C-terminal domain of E7 from HPV16 (residues 45–98) (domain or fragment)
chain: AEPDRAHYNIVTFCCKCDSTLRLCVQSTHVDIRTLEDLLMGTLGIVCPICSQKP
notes: HPV16 E7, C-terminal domain, residues 45-98; Purified similarly to HPV18 E7, whose tag was removed with TEV; the complex mass of 80–85 kDa fits a cleaved tag; also called HPV16 E7 C-terminal domain; source: E. coli, MBP-modified pET28a, copurified with PTPN14 by mixing cell lysates
B6: C-terminal domain of E7 from HPV11 (residues 45–98) (domain or fragment)
chain: AQPLTQHYQILTCCCGCDSNVRLVVECTDGDIRQLQDLLLGTLNIVCPICAPKP
notes: HPV11 E7, C-terminal domain, residues 45-98; Purified similarly to HPV18 E7, whose tag was removed with TEV; the complex mass of 80–85 kDa fits a cleaved tag; also called HPV11 E7 C-terminal domain; source: E. coli, MBP-modified pET28a, copurified with PTPN14 by mixing cell lysates
B7: PTP domain of PTPN21 (residues 873–1174) (domain or fragment, human, UniProt Q16825 873-1174, looked up)
chain: EVATRATNDERCKILEQRLEQGMVFTEYERILKKRLVDGECSTARLPENAERNRFQDVLPYDDVRVELVPTKENNTGYINASHIKVSVSGIEWDYIATQGPLQNTCQDFWQMVWEQGIAIIAMVTAEEEGGREKSFRYWPRLGSRHNTVTYGRFKITTRFRTDSGCYATTGLKMKHLLTGQERTVWHLQYTDWPEHGCPEDLKGFLSYLEEIQSVRRHTNSTSDPQSPNPPLLVHCSAGVGRTGVVILSEIMIACLEHNEVLDIPRVLDMLRQQRMMLVQTLCQYTFVYRVLIQFLKSSRLI
notes: human PTPN21, PTP domain, residues 873-1174; also called PTPN21 PTP domain; PTPD1; source: E. coli, modified pPRoEX HTa, purified (Ni-NTA, TEV, second Ni-NTA); not shown: His10, N-terminal, cleaved; green fluorescent protein, N-terminal, cleaved

Series [1] concerns the molecule itself. In words: SEC-MALS; Superdex 75 10/300 GL; 50 mM Tris-HCl pH 7.5, 200 mM NaCl, 2 mM dithiothreitol; 6 mg/mL E7 C-terminal domain, 3 mg/mL PTP domain or copurified complex. (In general: In gel filtration, larger molecules generally elute earlier.)
In series [2] the target is C-terminal domain of E7 from HPV38 (residues 45–100) (human papillomavirus 38 (HPV38)). The series is described as above.
Series [3] has as its target C-terminal domain of E7 from HPV4 (residues 44–100) (human papillomavirus 4 (HPV4)). The description is as above.
The target in series [4] is B3. The description is as above. The note with it: both partners purified.
In series [5] the target is B1. Described as above. To be noted: both partners purified.
The target of series [6] is B5. The description is as above. The note with it: both partners purified.
Series [7] concerns the target B6. The description is as above. To be noted: both partners purified.
For series [8], the target named is B2. Put plainly: SEC; copurified from mixed E. coli lysates (Ni-NTA, TEV, second Ni-NTA); final HiLoad 26/600 Superdex 75 pg gel filtration, fractions on SDS-PAGE with Coomassie staining. The note with it: both partners purified.
The target of series [9] is B2. In words: ITC; 25 °C, VP-ITC; PTP domain titrated into MBP-tagged HPV18 E7 (0.2 mM into 10 μM in Fig 1B); 20 mM Tris-HCl pH 7.5, 100 mM NaCl, 10 mM β-mercaptoethanol; one-to-one model; triplicate. The note with it: both partners purified. Background: ITC needs no label: the signal is the heat of the interaction.
Series [10] addresses B7. The description is as above. To be noted: both partners purified.

One may read the stoichiometry N as a count of units in the complex or per binding partner. For orientation: Kd means the equilibrium constant for the complex coming apart. A higher Kd goes with weaker binding.

C-terminal domain of E7 from HPV4 (residues 44–100) (human papillomavirus 4 (HPV4)), sequence (Q07857 44-100 limits assumed): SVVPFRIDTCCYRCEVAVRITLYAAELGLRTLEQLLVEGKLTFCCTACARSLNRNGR
C-terminal domain of E7 from HPV38 (residues 45–100) (human papillomavirus 38 (HPV38)), sequence (Q80908 45-100 limits assumed): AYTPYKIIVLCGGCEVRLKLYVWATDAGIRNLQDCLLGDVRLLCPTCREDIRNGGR

As for B1, in series [1], the “stoichiometry N” value came to 2.
On to B2, for which the stoichiometry N (PTPN14 per E7 (2:2)) in [2] and in [3] was 1 throughout. In addition, the “stoichiometry N” value in series [4], in [5], in [6] and in [7] was 1 PTPN14 per E7 (2:2) in each case.
Consider B3, for which the binding result in [8] is “binds”.

B4: MBP-tagged HPV18 E7 C-terminal domain (residues 54–105) (domain or fragment)
chain: AEPQRHTMLCMCCKCEARIKLVVESSADDLRAFQQLFLNTLSFVCPWCASQQ
notes: HPV18 E7, C-terminal domain, residues 54-105; also called His6–MBP-tagged C-terminal domain of HPV18 E7; source: E. coli BL21(DE3) RIL, modified pET28a, purified; not shown: His6, N-terminal, kept; MBP, N-terminal, kept
B4: the Kd came out at 18.2 nM in series [9] and 5.81 nM in series [10].
B5: the binding result in series [8] is reported as “binds”.
Regarding B6, the binding result in [8] is given as “binds”.
For the molecule B7, the “stoichiometry N” value in series [5] was 1 PTPN21 per E7 (2:2).
